Data taken from paper PMC10501185.

Biological target: Lymphocytic choriomeningitis virus RING finger Z matrix protein (Lymphocytic choriomeningitis virus (LCMV)) (UniProt P18541)
Assay: cryo-EM structure

Chain of UniProt P18541 (P18541 whole entry): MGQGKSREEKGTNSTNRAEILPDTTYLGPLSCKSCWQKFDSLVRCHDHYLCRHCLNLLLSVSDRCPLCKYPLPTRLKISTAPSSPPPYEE

**Q.** Which stoichiometry N does the source give for “Lymphocytic choriomeningitis virus large polymerase (L), P14240 1-2210” here?
**A.** Its stoichiometry N is 1.
